Results: patent publication US20250381289A1 (Genmab, published 2025)

Tests used:
[1] = target: T1, EGFR on EGFR and cMET co-expressed tumor cell lines (UniProt P00533 25-1210, limits assumed); experiment: flow cytometry, MKN-45 cells (co-express EGFR and cMET; both arms contribute)
T1 construct: whole, on cells

[2] = target: T2, cMET on EGFR and cMET co-expressed tumor cell lines (UniProt P08581 25-1390, limits assumed); experiment: as above
T2 construct: whole, on cells
Target sequence in this assay (P08581 25-1390 limits assumed): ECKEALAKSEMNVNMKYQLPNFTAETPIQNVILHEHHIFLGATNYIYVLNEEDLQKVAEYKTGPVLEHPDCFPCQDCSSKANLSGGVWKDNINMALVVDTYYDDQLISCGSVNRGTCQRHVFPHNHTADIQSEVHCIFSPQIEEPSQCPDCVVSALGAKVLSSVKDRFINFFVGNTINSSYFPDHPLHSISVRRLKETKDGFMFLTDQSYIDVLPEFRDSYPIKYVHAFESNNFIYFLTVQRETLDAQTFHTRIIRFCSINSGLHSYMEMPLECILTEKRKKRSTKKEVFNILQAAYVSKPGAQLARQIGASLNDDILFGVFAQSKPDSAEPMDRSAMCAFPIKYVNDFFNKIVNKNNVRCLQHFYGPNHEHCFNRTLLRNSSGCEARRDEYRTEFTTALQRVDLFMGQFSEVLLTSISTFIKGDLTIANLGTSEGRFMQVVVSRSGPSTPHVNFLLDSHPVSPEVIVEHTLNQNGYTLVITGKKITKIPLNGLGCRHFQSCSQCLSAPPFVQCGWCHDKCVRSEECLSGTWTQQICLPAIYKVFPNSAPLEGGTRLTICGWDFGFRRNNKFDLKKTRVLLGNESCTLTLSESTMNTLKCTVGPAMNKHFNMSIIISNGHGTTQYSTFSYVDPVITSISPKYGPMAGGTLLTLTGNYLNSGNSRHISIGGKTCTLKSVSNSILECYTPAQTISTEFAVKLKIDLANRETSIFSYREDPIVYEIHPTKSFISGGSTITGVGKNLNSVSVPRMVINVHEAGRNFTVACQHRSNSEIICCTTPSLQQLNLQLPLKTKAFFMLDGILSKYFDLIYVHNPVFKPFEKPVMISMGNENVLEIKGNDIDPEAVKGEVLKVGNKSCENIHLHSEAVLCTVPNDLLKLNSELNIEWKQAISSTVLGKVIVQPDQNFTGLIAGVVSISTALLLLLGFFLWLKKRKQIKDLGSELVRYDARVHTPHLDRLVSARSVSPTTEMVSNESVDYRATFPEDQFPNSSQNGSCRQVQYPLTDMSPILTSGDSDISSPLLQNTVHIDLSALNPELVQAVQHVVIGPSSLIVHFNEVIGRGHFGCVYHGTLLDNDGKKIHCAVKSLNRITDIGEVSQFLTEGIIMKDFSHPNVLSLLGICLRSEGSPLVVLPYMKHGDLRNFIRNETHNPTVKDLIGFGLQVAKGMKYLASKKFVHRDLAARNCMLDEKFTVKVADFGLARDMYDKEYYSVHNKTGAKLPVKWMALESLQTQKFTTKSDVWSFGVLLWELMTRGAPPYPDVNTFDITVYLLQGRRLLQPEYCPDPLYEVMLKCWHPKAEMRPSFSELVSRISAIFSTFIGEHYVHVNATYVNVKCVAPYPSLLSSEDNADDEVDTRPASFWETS

[3] = target: T1, EGFR on EGFR and cMET co-expressed …; experiment: flow cytometry on SNU-5 cells (co-express EGFR and cMET), PE anti-human Fc; signal of the whole bispecific, not resolved by arm
[4] = target: T2, cMET on EGFR and cMET co-expressed …; experiment: as above
Target sequence in this assay (P08581 25-1390 limits assumed): as above

[5] = target: T1, EGFR on EGFR and cMET co-expressed …; experiment: flow cytometry, SW620 cells (named among the EGFR and cMET co-expressing lines; both arms contribute)
[6] = target: T2, cMET on EGFR and cMET co-expressed …; experiment: as above
[7] = target: T1, EGFR on EGFR and cMET co-expressed …; experiment: flow cytometry, NCI-N87 cells (co-express EGFR and cMET; both arms contribute)
[8] = target: T2, cMET on EGFR and cMET co-expressed …; experiment: as above
Target sequence in this assay (P08581 25-1390 limits assumed): as above

human cMET-Fc = target: T3, human cMET-Fc (human, UniProt P08581 25-932); experiment: blocking ELISA: coated human cMET-Fc, antibody titrated, then human HGF-His (blocked ligand), anti-His-HRP
T3 construct: not shown: Fc part, not described

[9] = target: T2, cMET on EGFR and cMET co-expressed …; experiment: flow cytometry on EBC-1 cells (co-express EGFR and cMET), PE anti-human Fc; signal of the whole bispecific, not resolved by arm
Human cMET [10] = target: T4, Human cMET (human); experiment: ELISA, coated human cMET, anti-human Fc-HRP
T4 construct: recombinant protein; also called human cMET recombinant protein

Human EGFR = target: T5, Human EGFR (human, UniProt P00533); experiment: ELISA, plate coated with 100 ng/well human EGFR recombinant protein, HRP anti-human Fc, OD450
T5 construct: recombinant protein coated on the ELISA plate; also called human EGFR recombinant protein

Human cMET [11] = target: T6, Human cMET; experiment: ELISA, plate coated with 100 ng/well human cMET recombinant protein, HRP anti-human Fc, OD450
T6 construct: also called human cMET recombinant protein
T6 chain: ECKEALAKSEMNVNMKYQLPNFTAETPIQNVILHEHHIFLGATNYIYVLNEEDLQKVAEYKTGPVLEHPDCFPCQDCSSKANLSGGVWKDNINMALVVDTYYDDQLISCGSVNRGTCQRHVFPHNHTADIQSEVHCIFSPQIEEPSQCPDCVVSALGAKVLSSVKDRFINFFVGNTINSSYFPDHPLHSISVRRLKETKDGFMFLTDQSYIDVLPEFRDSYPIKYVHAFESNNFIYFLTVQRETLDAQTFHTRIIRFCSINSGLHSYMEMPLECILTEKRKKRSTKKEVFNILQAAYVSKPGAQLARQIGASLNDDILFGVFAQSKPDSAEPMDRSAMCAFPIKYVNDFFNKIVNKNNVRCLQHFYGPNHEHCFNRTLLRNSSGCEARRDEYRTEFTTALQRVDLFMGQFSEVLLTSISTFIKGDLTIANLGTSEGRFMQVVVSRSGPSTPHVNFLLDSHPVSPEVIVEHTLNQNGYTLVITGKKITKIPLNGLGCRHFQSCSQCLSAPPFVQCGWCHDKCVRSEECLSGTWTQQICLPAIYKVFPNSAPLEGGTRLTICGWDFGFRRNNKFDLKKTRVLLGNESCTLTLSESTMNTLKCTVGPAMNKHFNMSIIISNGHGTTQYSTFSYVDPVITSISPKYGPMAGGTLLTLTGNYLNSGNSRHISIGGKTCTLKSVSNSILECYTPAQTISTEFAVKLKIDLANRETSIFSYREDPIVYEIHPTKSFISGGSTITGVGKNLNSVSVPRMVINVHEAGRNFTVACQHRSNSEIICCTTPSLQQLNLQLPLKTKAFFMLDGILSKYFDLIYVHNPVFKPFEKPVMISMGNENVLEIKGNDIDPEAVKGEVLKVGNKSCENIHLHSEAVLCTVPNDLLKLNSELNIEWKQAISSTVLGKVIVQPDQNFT

T4 sequence (P08581 whole entry): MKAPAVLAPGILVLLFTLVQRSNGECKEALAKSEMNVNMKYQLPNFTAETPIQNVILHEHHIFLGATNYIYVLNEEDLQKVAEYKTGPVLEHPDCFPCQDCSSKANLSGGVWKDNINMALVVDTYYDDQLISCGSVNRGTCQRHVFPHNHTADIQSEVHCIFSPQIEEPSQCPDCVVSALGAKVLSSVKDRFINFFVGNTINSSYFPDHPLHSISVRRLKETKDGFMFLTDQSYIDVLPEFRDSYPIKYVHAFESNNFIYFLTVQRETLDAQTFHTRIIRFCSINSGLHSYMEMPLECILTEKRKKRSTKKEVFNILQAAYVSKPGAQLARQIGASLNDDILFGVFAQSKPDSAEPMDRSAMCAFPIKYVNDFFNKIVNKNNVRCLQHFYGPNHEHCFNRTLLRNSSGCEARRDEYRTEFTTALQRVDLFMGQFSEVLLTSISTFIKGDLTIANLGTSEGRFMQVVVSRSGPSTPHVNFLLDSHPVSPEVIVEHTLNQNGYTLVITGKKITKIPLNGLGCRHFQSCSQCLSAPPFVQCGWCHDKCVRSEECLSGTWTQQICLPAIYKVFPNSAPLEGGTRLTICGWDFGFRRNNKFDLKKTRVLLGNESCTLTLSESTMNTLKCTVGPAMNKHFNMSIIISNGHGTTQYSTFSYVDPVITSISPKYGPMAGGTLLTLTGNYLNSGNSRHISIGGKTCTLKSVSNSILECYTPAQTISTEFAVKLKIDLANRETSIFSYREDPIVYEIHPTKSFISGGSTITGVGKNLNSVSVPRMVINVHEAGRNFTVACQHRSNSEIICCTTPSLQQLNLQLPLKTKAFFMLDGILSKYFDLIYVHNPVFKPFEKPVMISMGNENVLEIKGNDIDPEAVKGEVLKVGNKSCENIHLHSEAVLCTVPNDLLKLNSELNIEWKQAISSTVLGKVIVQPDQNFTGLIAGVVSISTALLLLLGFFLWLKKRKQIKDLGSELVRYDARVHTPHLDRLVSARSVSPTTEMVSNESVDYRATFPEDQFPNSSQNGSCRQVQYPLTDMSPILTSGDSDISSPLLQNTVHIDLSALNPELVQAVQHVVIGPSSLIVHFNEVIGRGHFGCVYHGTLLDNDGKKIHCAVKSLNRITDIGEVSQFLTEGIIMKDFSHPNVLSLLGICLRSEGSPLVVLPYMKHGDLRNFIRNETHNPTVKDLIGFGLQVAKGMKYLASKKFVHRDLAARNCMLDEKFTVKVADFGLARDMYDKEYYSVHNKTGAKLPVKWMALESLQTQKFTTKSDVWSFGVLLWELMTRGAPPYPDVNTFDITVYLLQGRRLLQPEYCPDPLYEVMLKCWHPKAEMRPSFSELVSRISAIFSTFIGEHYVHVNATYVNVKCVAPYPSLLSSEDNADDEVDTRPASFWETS

B1: Amivantamab (bispecific antibody, human IgG1, kappa)
heavy 1: not shown
light 1: not shown
heavy 2: not shown
light 2: DIQMTQSPSSVSASVGDRVTITCRASQGISNWLAWFQHKPGKAPKLLIYAASSLLSGVPSRFSGSGSGTDFTLTISSLQPEDFATYYCQQANSFPITFGQGTRLEIKRTVAAPSVFIFPPSDEQLKSGTASVVCLLNNFYPREAKVQWKVDNALQSGNSQESVTEQDSKDSTYSLSSTLTLSKADYEKHKVYACEVTHQGLSSPVTKSFNRGEC
notes: Bispecific positive control
[1]
  EC50 (read off the curve): ~2 nM
[2]
  EC50 (read off the curve): ~2 nM
[3]
  EC50 (read off the curve): ~3 nM
[4]
  EC50 (read off the curve): ~3 nM
[5]
  EC50 (read off the curve): ~0.2 nM
[6]
  EC50 (read off the curve): ~0.2 nM
[7]
  EC50 (read off the curve): ~2 nM
[8]
  EC50 (read off the curve): ~2 nM
Human cMET-Fc
  IC50 (read off the curve): ~0.8 nM
[9]
  EC50 (read off the curve): ~2 nM
Human cMET [10]
  EC50 (read off the curve): ~1 nM
Human EGFR
  EC50 (read off the curve): ~0.4 nM
Human cMET [11]
  EC50 (read off the curve): ~0.1 nM
